The record followed here is paper PMC7061307 (Molecular cell, 2019).

The target of data set [1] is 3XFLAG-TBP T114A (p3XFLAG-cmv10 construct) (human, UniProt P20226 1-339, T114A). Put plainly: co-IP.
Data set [2] is described as follows: TBP:BTAF1 interaction under LG, HG, TMG, Ac4SGlcNAc. The following applies: glycan lost; control: TBP3X-WT cells.
Another data set in a line: ChIP-qPCR ± TMG. Conditions: glycan lost; control: TBP3X-WT cells. A general note: Real-time PCR tracks product formation cycle by cycle.
Data set [3] can be described thus: IP and anti-phosphothreonine blot. Conditions: glycan lost; control: TBP3X-WT cells.

B1: B-TFIID TATA-Box Binding Protein Associated Factor 1 (BTAF1), endogenous human (natural protein, UniProt O14981 1-1849, looked up)
chain: MAVSRLDRLFILLDTGTTPVTRKAAAQQLGEVVKLHPHELNNLLSKVLIYLRSANWDTRIAAGQAVEAIVKNVPEWNPVPRTRQEPTSESSMEDSPTTERLNFDRFDICRLLQHGASLLGSAGAEFEVQDEKSGEVDPKERIARQRKLLQKKLGLNMGEAIGMSTEELFNDEDLDYTPTSASFVNKQPTLQAAELIDSEFRAGMSNRQKNKAKRMAKLFAKQRSRDAVETNEKSNDSTDGEPEEKRRKIANVVINQSANDSKVLIDNIPDSSSLIEETNEWPLESFCEELCNDLFNPSWEVRHGAGTGLREILKAHGKSGGKMGDSTLEEMIQQHQEWLEDLVIRLLCVFALDRFGDFVSDEVVAPVRETCAQTLGVVLKHMNETGVHKTVDVLLKLLTQEQWEVRHGGLLGIKYALAVRQDVINTLLPKVLTRIIEGLQDLDDDVRAVAAASLVPVVESLVYLQTQKVPFIINTLWDALLELDDLTASTNSIMTLLSSLLTYPQVQQCSIQQSLTVLVPRVWPFLHHTISSVRRAALETLFTLLSTQDQNSSSWLIPILPDMLRHIFQFCVLESSQEILDLIHKVWMELLSKASVQYVVAAACPWMGAWLCLMMQPSHLPIDLNMLLEVKARAKEKTGGKVRQGQSQNKEVLQEYIAGADTIMEDPATRDFVVMRARMMAAKLLGALCCCICDPGVNVVTQEIKPAESLGQLLLFHLNSKSALQRISVALVICEWAALQKECKAVTLAVQPRLLDILSEHLYYDEIAVPFTRMQNECKQLISSLADVHIEVGNRVNNNVLTIDQASDLVTTVFNEATSSFDLNPQVLQQLDSKRQQVQMTVTETNQEWQVLQLRVHTFAACAVVSLQQLPEKLNPIIKPLMETIKKEENTLVQNYAAQCIAKLLQQCTTRTPCPNSKIIKNLCSSLCVDPYLTPCVTCPVPTQSGQENSKGSTSEKDGMHHTVTKHRGIITLYRHQKAAFAITSRRGPTPKAVKAQIADLPAGSSGNILVELDEAQKPYLVQRRGAEFALTTIVKHFGGEMAVKLPHLWDAMVGPLRNTIDINNFDGKSLLDKGDSPAQELVNSLQVFETAAASMDSELHPLLVQHLPHLYMCLQYPSTAVRHMAARCVGVMSKIATMETMNIFLEKVLPWLGAIDDSVKQEGAIEALACVMEQLDVGIVPYIVLLVVPVLGRMSDQTDSVRFMATQCFATLIRLMPLEAGIPDPPNMSAELIQLKAKERHFLEQLLDGKKLENYKIPVPINAELRKYQQDGVNWLAFLNKYKLHGILCDDMGLGKTLQSICILAGDHCHRAQEYARSKLAECMPLPSLVVCPPTLTGHWVDEVGKFCSREYLNPLHYTGPPTERIRLQHQVKRHNLIVASYDVVRNDIDFFRNIKFNYCILDEGHVIKNGKTKLSKAVKQLTANYRIILSGTPIQNNVLELWSLFDFLMPGFLGTERQFAARYGKPILASRDARSSSREQEAGVLAMDALHRQVLPFLLRRMKEDVLQDLPPKIIQDYYCTLSPLQVQLYEDFAKSRAKCDVDETVSSATLSEETEKPKLKATGHVFQALQYLRKLCNHPALVLTPQHPEFKTTAEKLAVQNSSLHDIQHAPKLSALKQLLLDCGLGNGSTSESGTESVVAQHRILIFCQLKSMLDIVEHDLLKPHLPSVTYLRLDGSIPPGQRHSIVSRFNNDPSIDVLLLTTHVGGLGLNLTGADTVVFVEHDWNPMRDLQAMDRAHRIGQKRVVNVYRLITRGTLEEKIMGLQKFKMNIANTVISQENSSLQSMGTDQLLDLFTLDKDGKAEKADTSTSGKASMKSILENLSDLWDQEQYDSEYSLENFMHSLK
For B1, the “fold amount of BTAF1 co-IPed against TBP^WT” value in data set [1] is approximately 3 fold.

B2: TATA-box binding protein (TBP): TBP3X-T114A (protein)
parent chain: MDQNNSLPPYAQGLASPQGAMTPGIPIFSPMMPYGTGLTPQPIQNTNSLSILEEQQRQQQQQQQQQQQQQQQQQQQQQQQQQQQQQQQQQQQQQQAVAAAAVQQSTSQQATQGTSGQAPQLFHSQTLTTAPLPGTTPLYPSPMTPMTPITPATPASESSGIVPQLQNIVSTVNLGCKLDLKTIALRARNAEYNPKRFAAVIMRIREPRTTALIFSSGKMVCTGAKSEEQSRLAARKYARVVQKLGFPAKFLDFKIQNMVGSCDVKFPIRLEGLVLTHQQFSSYEPELFPGLIYRMIKPRIVLLIFVSGKVVLTGAKVRAEIYEAFENIYPILKGFRKTT
For B2, the “other: response of BTAF1 binding to glucose/TMG/Ac4SGlcNAc” value in data set [2] is listed as “abolishes”. In addition, the “other: TMG-induced rise in promoter occupancy” value in the data set “ChIP-qPCR ± TMG” is reported as “abolishes”. For the same molecule, the “other: TBP phosphorylation” value in data set [3] was “no change”.
